Measurements from article PMC8047080, “Engineering Cofactor Specificity of a Thermostable Phosphite Dehydrogenase for a Highly Efficient and Robust NADPH Regeneration System” (Frontiers in Bioengineering and Biotechnology, 2021).

Columns and labels:
[1] = target: T1, shikimate dehydrogenase (SDH) (Thermus thermophilus, UniProt Q5SJF8); assay: HPLC ([…] nm) of shikimic acid formed in coupled reaction with RsPtxD; assay type: biochemical; conditions: NADPH regenerated from 0.1 mM NADP by RsPtxD HARRA mutant; 20 mM phosphite; 100 mM HEPES pH 8.0; 45°C
T1 construct: gene aroE; pET-11a in E. coli Rosetta 2 (DE3) pLysS; heat treatment at 80°C and HiTrap SP purification
T1 sequence (Q5SJF8 1-263): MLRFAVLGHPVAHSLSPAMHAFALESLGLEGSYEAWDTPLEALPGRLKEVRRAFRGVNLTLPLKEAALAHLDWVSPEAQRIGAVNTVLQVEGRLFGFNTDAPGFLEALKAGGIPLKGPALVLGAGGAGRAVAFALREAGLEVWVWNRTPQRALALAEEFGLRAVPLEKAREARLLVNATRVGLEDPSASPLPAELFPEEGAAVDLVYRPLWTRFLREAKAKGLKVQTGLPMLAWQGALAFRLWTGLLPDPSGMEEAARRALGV

O=[PH](O)O = assay: purified protein; conditions: 1 mM NADP as co-substrate, 100 mM MOPS pH 7.3
[2] = test system: NC(=O)c1ccc[n+]([C@@H]2O[C@H](COP(=O)(O)OP(=O)(O)OC[C@H]3O[C@@H](n4cnc5c(N)ncnc54)[C@H](OP(=O)(O)O)[C@@H]3O)[C@@H](O)[C@H]2O)c1; assay: purified protein; conditions: 1 mM phosphite, 100 mM MOPS pH 7.3
[3] = test system: NC(=O)c1ccc[n+]([C@@H]2O[C@H](COP(=O)(O)OP(=O)(O)OC[C@H]3O[C@@H](n4cnc5c(N)ncnc54)[C@H](O)[C@@H]3O)[C@@H](O)[C@H]2O)c1; assay: purified protein; conditions: 1 mM phosphite, 100 mM MOPS pH 7.3
purified protein [4] = substrate: NC(=O)c1ccc[n+]([C@@H]2O[C@H](COP(=O)(O)OP(=O)(O)OC[C@H]3O[C@@H](n4cnc5c(N)ncnc54)[C@H](O)[C@@H]3O)[C@@H](O)[C@H]2O)c1; assay: purified protein; conditions: 1 mM phosphite, 100 mM MOPS pH 7.3; remark: listed apart in the source
purified protein [5] = substrate: O=[PH](O)O; assay: purified protein; conditions: 1 mM NAD as co-substrate, 100 mM MOPS pH 7.3
purified protein [6] = substrate: NC(=O)c1ccc[n+]([C@@H]2O[C@H](COP(=O)(O)OP(=O)(O)OC[C@H]3O[C@@H](n4cnc5c(N)ncnc54)[C@H](OP(=O)(O)O)[C@@H]3O)[C@@H](O)[C@H]2O)c1; assay: purified protein; conditions: 1 mM phosphite, 100 mM MOPS pH 7.3; remark: listed apart in the source

NC(=O)C1=CN([C@@H]2O[C@H](COP(=O)(O)OP(=O)(O)OC[C@H]3O[C@@H](n4cnc5c(N)ncnc54)[C@H](OP(=O)(O)O)[C@@H]3O)[C@@H](O)[C@H]2O)C=CC1 [NADPH]
HPLC (230 nm) of shikimic acid formed in coupled reaction with RsPtxD [1]: SDH catalyzes the reduction of 3-DHS to SA

RsPtxD (Ralstonia sp. 4506; C174H/D175A/I177K/P176R/P178A)
Km (O=[PH](O)O): 27 ± 9.0 µM
Km [2]: 4.4 ± 0.9 µM
kcat [2]: 129 ± 12.1 min^–1
kcat/Km [2]: 493000 M⁻¹ s⁻¹
Km [3]: 130 ± 10.6 µM
kcat [3]: 154 ± 7.5 min^–1
kcat/Km [3]: 20000 M⁻¹ s⁻¹

RsPtxD (Ralstonia sp. 4506; C174H/D175A/I177R/P176R/P178A)
Km (O=[PH](O)O): 38 ± 8.5 µM
Km [2]: 2.9 ± 0.5 µM
kcat [2]: 128 ± 16.6 min^–1
kcat/Km [2]: 735000 M⁻¹ s⁻¹
Km [3]: 112 ± 1.3 µM
kcat [3]: 148 ± 14.8 min^–1
kcat/Km [3]: 21700 M⁻¹ s⁻¹

RsPtxD (Ralstonia sp. 4506; C174H/D175A/P176R)
Km [2]: 24 ± 5.2 µM
kcat [2]: 118 ± 6.8 min^–1
kcat/Km [2]: 81700 M⁻¹ s⁻¹
Km [3]: 154 ± 14.7 µM
kcat [3]: 155 ± 2.3 min^–1
kcat/Km [3]: 16700 M⁻¹ s⁻¹

RsPtxD (Ralstonia sp. 4506; D175A/P176R)
Km [2]: 56 ± 5.1 µM
kcat [2]: 91.1 ± 3.9 min^–1
kcat/Km [2]: 26700 M⁻¹ s⁻¹
Km [3]: 412 ± 21.5 µM
kcat [3]: 115 ± 13.0 min^–1
kcat/Km [3]: 5000 M⁻¹ s⁻¹

B1: RsPtxD (Ralstonia sp. 4506) (protein)
chain: MKPKVVLTHWVHPEIIELLSASADVIPNTTRETLPRSEVIARAKDADALMAFMPDSIDSAFLEECPKLRVIGAALKGYDNFDVNACTRHGVWLTIVPDLLTIPTAELTIGLLLGLTRHMLEGDRQIRSGHFQGWRPTLYGSGLTGKTLGIIGMGAVGRAIAQRLAGFEMNLLYCDPIPLNAEQEKAWHVQRVTLDELLEKCDYVVPMVPMAAETLHLIDATALAKMKTGSYLINACRGSVVDENAVIAALASGKLAGYAADVFEMEEWIRADRPQAIPKALLDNTAQTFFTPHLGSAVKEVRLEIERQAAMNIIQALAGEKPMGAINQPYPGVKAA
Km (purified protein [4]): 7.7 ± 2.3 µM
kcat (purified protein [4]): 127 ± 16.8 min^–1
kcat/Km (purified protein [4]): 277000 M⁻¹ s⁻¹
Km (purified protein [5]): 37.0 ± 7.0 µM
Km (purified protein [6]): 418 ± 38.7 µM
kcat (purified protein [6]): 16.0 ± 6.3 min^–1
